Assay results published in article PMC2905415, “Characterization of a Clp Protease Gene Regulator and the Reaeration Response in Mycobacterium tuberculosis”.

Legend:
[1] = biological target: T1, Rv2745-S (ClgR, stabilized/soluble form) (Mycobacterium tuberculosis, UniProt P9WMH7 1-112, V111D;A112D); test: EMSA; details: protein: recombinant; tags: NusA fusion and His tag (pET50b), removed with HRV3C protease; chain copies: 2; label: 5' Cy5.5; blunt
T1 sequence: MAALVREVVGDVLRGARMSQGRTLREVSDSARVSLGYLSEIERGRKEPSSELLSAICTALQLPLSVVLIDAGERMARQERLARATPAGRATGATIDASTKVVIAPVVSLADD

Rv2745-S L24SR25D (DBL) = biological target: T2, Rv2745-S L24SR25D (DBL) (Mycobacterium tuberculosis, UniProt P9WMH7 1-112, L24S;R25D;V111D;A112D); test: EMSA; details: protein: recombinant; chain copies: 2; label: 5' Cy5.5; blunt
T2 sequence: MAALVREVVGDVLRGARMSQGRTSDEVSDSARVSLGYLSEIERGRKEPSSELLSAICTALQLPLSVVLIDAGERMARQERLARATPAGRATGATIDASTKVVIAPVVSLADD

[2] = biological target: T1, Rv2745-S (ClgR, stabilized/soluble form); test: competition; details: protein: recombinant; tags: NusA fusion and His tag (pET50b), removed with HRV3C protease; chain copies: 2; blunt

B1: clpC1 promoter probe (dsDNA)
DNA 1: CGAGCGGCCATCGGTTCGCCGCCAGCGAACGCGGCAAAGTAC
DNA 2: GTACTTTGCCGCGTTCGCTGGCGGCGAACCGATGGCCGCTCG
**Q.** Does B1 bind [1]?
**A.** binds

**Q.** Does B1 bind (Rv2745-S L24SR25D (DBL))?
**A.** no binding

B2: clpC1 promoter unlabeled competitor (dsDNA)
DNA 1: CGAGCGGCCATCGGTTCGCCGCCAGCGAACGCGGCAAAGTAC
DNA 2: GTACTTTGCCGCGTTCGCTGGCGGCGAACCGATGGCCGCTCG
**Q.** Does B2 bind [2]?
**A.** binds
